Results taken from patent US11583587B2, “Polymer” (VECTURA LIMITED, priority 2016, dated 2023).

Assays:
complement proteins = assay: Complement activation assay (residual haemolytic capacity of normal human serum); conditions: at the protein concentrations investigated
Description: Polymer-lysozyme nanocomplexes or free lysozyme were kept in contact with normal human serum (NHS) and the residual haemolytic capacity was measured to study the complement activation. NHS was received from healthy volunteers, aliquoted and stored at −80° C. until use. Sheep erythrocytes were sensitised by rabbit anti-sheep erythrocyte antibodies at a final dilution of 1/800 v/v and these sensitised sheep erythrocytes were suspended at a final concentration of 1×10^8 cells mL^−1 in veronal-buffer saline (VBS2+, containing 0.5 mM Mg and 0.15 mM Ca2+). VBS2+ and NHS were mixed with polymer-lysozyme nanocomplexes or free lysozyme at final protein concentration of 1.116 mg mL^−1 so that the final dilution of NHS in the reaction mixture was 1/4 (v/v) in a final volume of 400 μl. […] The supernatant was collected and the optical density was measured at 415 nm with Dynex absorbance microplate reader (Dynex technologies, USA).
Sample without serum was used here as […] (100% complement activation, 0% sensitised sheep erythrocytes lysis) and employed to correct the absorbance values from the samples. […] They can be calculated by a linear fit to a log-log version of the Von Krogh (equation 1). Particularly, in this study, the data was expressed as the percentage of complement activation relative to 100% complement activation observed with our positive control samples.

trypsin = assay: Protein protection against proteolytic enzymes (trypsin, then poly(allyl amine) disassembly); type: biochemical, bovine
Description: In order to assess the enzymatic activity of the lysozyme model protein, a turbidimetric enzymatic assay was performed by measuring the decrease in optical density of a suspension of Micrococcus lysodeikticus lyophilized cells, a natural substrate for lysozyme, in PB. Nanocomplexes and also free lysozyme were extracted from the dry powders as previously described, at a protein concentration of […] (as quantified by BCA assay). 10 mg of lyophilised cells were added to 20 mL of PB. 300 μL of this substrate suspension were added to 150 μL of particle solution and the decrease in optical density was measured at λ=460 nm as a function of time for 60 sec. The absorbance decay plots from 0 to 10 sec were fitted to a linear equation and the enzymatic activities were then determined from the slope of the fitted line. Not spray-dried free lysozyme was used in this work as reference (100% enzymatic activity).
Nanocomplexes were recovered from the dry powders as previously described, at a protein concentration of 37 μg mL^−1 (as quantified by BCA assay). 657 μg of trypsin (≥10,000 BAEE units/mg protein) were added to 4 mL of particle solution and the mixture was kept at room temperature for 3 h under gentle stirring. […] Lysozyme activity was then quantified as previously described. […]

“lysozyme: Model protein; samples named lysozyme contained no polymer (lysozyme 5% w/w)” was tested, and the “hemolysis of sensitized sheep erythrocytes without serum” value (complement proteins) was “did not lead to hemolysis”, the “decrease in enzymatic activity after trypsin” value (trypsin; no polymer added to the dry powder) was > 60% and the “residual lysozyme activity after trypsin” value (trypsin; trypsin 3 h in PB, then poly(allyl amine) 1 h, % of initial activity) was “less than 40%”.
